In patent publication US8586706B2, “Peptide vaccine using mimic molecules of amyloid β peptide” (Kagoshima University, priority 2007, dated 2013):
No end group written: not given here. *: point of attachment. Biotin = O=C1N[C@H]2[C@H](CS[C@H]2CCCCC(=O)*)N1

Legend:
[1] = molecular target: T1, Aβ oligomers and Aβ fibers (Homo sapiens, UniProt P05067); assay: Experiment of precipitation of Aβ conformers by biotinylated peptide with streptavidin-magnet beads, Western blot; format: binding; conditions: biotinylated peptide added 1.5 hours after dissolution of Aβ1-42, FIG. 9
T1 construct: Aβ1-42 was dissolved at a concentration of 40 μM in 20 mM phosphate buffer
T1 sequence (P05067 672-713 limits assumed): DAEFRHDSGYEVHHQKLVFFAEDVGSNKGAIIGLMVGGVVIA
Experimental: Aβ1-42 was dissolved at a concentration of 40 μM in 20 mM phosphate buffer (pH 7.0). The TAT-B6-L1 or TAT-B7-C15 peptide adjusted to 40 μM was added 1.5 hours thereafter at a ratio of 1:1 by liquid volume, and the reaction was allowed to proceed at 37° C. for 1 hour (final concentration: Aβ (20 μM)/synthesized peptide (20 μM)). After the reaction, an aliquot thereof was sampled as a sample before immunoprecipitation (“Before precipitation”), and the remaining sample was reacted with M-280 streptavidin-magnet beads (Dynal Biotech, Oslo, Norway) adjusted to 20 μg/μl on ice for 1 hour at a ratio of 1:1 by liquid volume (final concentration: Aβ (10 μM)/synthesized peptide (10 μM)/beads (10 μg/μl)). After the reaction, the beads were precipitated using a magnet to obtain “Supernatant.” To the precipitated beads, PBS was added in a liquid volume equal to that of the recovered supernatant to obtain a “Precipitate.” Each obtained sample was electrophoresed and subjected to Western blot analysis using anti-Aβ antibodies.
Aβ1-42 was dissolved at a concentration of 40 μM in 20 mM phosphate buffer (pH 7.0). The biotinylated TAT-B6-L1 or TAT-B7-C15 peptide was added thereto 1.5 hours thereafter, and the conjugates were precipitated using streptavidin-magnet beads.

[2] = system: B6 scFv; assay: ELISA: binding of B6 scFv to plate-coated synthesized TAT fusion peptide; parameters: species or system human; conditions: ELISA plate coated with peptide 200 ng/well; B6 scFv at various concentrations; FIG. 7
Sequence of B6 scFv (as listed by the source): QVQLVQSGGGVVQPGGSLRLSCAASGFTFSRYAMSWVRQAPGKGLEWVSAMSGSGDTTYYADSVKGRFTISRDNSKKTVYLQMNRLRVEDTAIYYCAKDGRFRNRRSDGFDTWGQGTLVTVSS
Sequence of B6 scFv (as listed by the source): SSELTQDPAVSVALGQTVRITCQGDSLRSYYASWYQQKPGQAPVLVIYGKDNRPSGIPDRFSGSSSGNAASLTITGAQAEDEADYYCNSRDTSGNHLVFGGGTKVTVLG
Experimental: (5) The fusion peptide of TAT and B6-L1 was recognized by B6 scFv (FIG. 7). An ELISA plate was coated with the synthesized peptide TAT-B6-L1 or B6-L1-TAT under conditions of 200 ng/well. After addition of B6 scFv at various concentrations, binding activity thereof was inspected. A control peptide used was an unrelated peptide (GSGGGSCGYWRSEWGLCG)(SEQ ID NO: 32).

[3] = molecular target: T2, Aβ1-42 peptide (Homo sapiens, UniProt P05067); assay: Experiment of inhibition of amyloid β fibrillogenesis (thioflavine T fluorescence); format: biochemical; conditions: peptide 1.65, 16.5, 33 nM; Aβ1-42 40 μM, phosphate buffer pH 7.0; 0, 6, 24 hours; FIG. 8
T2 construct: Aβ1-42 was dissolved at a concentration of 40 μM in 20 mM phosphate buffer
T2 sequence (P05067 672-713 limits assumed): as the sequence (P05067 672-713 limits assumed) above
Experimental: The synthesized peptide (TAT-B6-L1, B6-L1-TAT, TAT-B7-C15, or TAT-B7-S15) was added at various concentrations (1.65 nM, 16.5 nM, and 33 nM) to the Aβ1-42 peptide diluted to 40 μM using 20 mM phosphate buffer (pH 7.0). The sample (10 μl) was recovered 0, 6, and 24 hours thereafter, 90 μl of 11 μM thioflavine T (Sigma)/phosphate buffer was added, and fluorescence intensity at 482 nm generated by the excitation light at 450 nm was measured using a multilabel plate counter, Wallac 1420 ARVO sx (Perkin-Elmer; Wellesley, Mass.).
Results of measuring activity of inhibiting Aβ1-42 fibrillogenesis by a fusion peptide of TAT and B6-L1, B7-C15, or B7-S15 are shown in FIG. 8. The experiment of inhibition of fibrillogenesis was conducted according to the procedures described in the experiment of inhibition of fibrillogenesis above.

| Substance | precipitation of Aβ oligomers or Aβ fibers by the peptide [1] | binding activity of B6 scFv to coated peptide [2] | activity of inhibiting Aβ1-42 fibrillogenesis [3] |
| --- | --- | --- | --- |
| TAT-B6-L1: B6-L1 sequence having a TAT sequence fused at the amino terminus, SEQ ID NO: 24 (Biotin-YGRKKRRQRRRGMLDIFAPIRHV) | such Aβ oligomers or Aβ fibers were observed in the precipitate | Binding reaction dependent on the amount of B6 scFv was observed | demonstrated to have the activity of inhibiting fibrillogenesis |
| B6-L1-TAT: B6-L1 sequence having a TAT sequence fused at the carboxyl terminus, SEQ ID NO: 25 (Biotin-GMLDIFAPIRHVYGRKKRRQRRR) | – | Binding reaction dependent on the amount of B6 scFv was observed | demonstrated to have the activity of inhibiting fibrillogenesis |
| TAT-B7-S15: B7-S15 sequence having a TAT sequence fused at the amino terminus, SEQ ID NO: 27 (Biotin-YGRKKRRQRRRSYGTKPWMSG) | – | – | demonstrated to have the activity of inhibiting fibrillogenesis |
| TAT-B7-C15: B7-C15 sequence (glycine added to carboxyl terminus) having a TAT sequence fused at the amino terminus, SEQ ID NO: 26 (Biotin-YGRKKRRQRRRCYGTKPWMCG; cysteine pairing not given here) | such Aβ oligomers or Aβ fibers were observed in the precipitate | – | demonstrated to have the activity of inhibiting fibrillogenesis |
| GSGGGSCGYWRSEWGLCG (Designed peptide based on the sequence unrelated to B6 scFv) [control peptide, reference compound] | No precipitation reaction was observed | – | no inhibiting activity |
